From article PMC8776730 (Nature Communications, 2022)

Key:
[1] = mouse, in vivo, iv, 16 mg/kg
MIA PaCa-2 tumor = settings: mouse, in vivo, iv, 16 mg/kg
Protocol: In order to reduce systemic error and individual difference, we constructed the subcutaneous pancreatic cancer model in mice for quantitatively calculating of the metabolic data.
All the animal experiments were performed in accordance with the Guide for the Care and Use of Laboratory Animals approved by the Committee for Animal Research of the National Center for Nanoscience and Technology. The MIA PaCa-2 tumor-bearing mice were intravenously injected with ICG, M1 and M2 (16 mg/kg), respectively for in vivo fluorescence imaging with in vivo spectrum imaging system. Finally, mice were sacrificed to collect the major organs and tumors for ex vivo fluorescence imaging.

[2] = Critical assembly concentration (CAC) by pyrene fluorescence probe; type: physicochemical
Text: In order to study the molecular design and their assembly behavior, we modular designed and synthesized seven molecules (Table 1), which respectively were BIVA probe: M1 (mPEG-GPAKLVFFGC(IR783)GRGD); the non- FAP-α tailoring molecule: M2 (mPEG-AGGKLVFFGC(IR783)GRGD) scrambled response tailoring motif of Gly-Pro-Ala with Ala-Gly-Gly; the non-labeling molecule of M1: M3 (mPEG-GPAKLVFFGCGRGD) removed IR783 labeling; FAP-α tailoring residue of M1: R-M1 (AKLVFFGC(IR783)GRGD); the non-targeting molecule: M4 (mPEG-GPAKLVFFGC(IR783)GDTG) scrambled targeting tailoring motif of Arg-Gly-Asp with Asp-Thr-Gly; the non-labeling molecule of M2: M5 (mPEG-AGGKLVFFGCGRGD) removed IR783 labeling; FAP-α tailoring residue of M3: R-M3 (AKLVFFGCGRGD). All the synthesized procedure (Supplementary Fig. 1) and characterizations of these seven molecules can be found in SI (Supplementary Figs. 2–8). […] Without IR783 labeling, molecules of M3 and M5 decreased the CAC value in solution relative to M1 and M2, which could be attributed to the proximity of the steric hindrance of hydrophilic IR783 to the self-assembly motif (Supplementary Fig. 9). […] The CAC was quantitatively calculated by fluorescence probe of pyrene.

FAP-α = biological target: T1, FAP-α (Homo sapiens, UniProt Q12884); test: FAP-α tailoring (cleavage) followed by HPLC and MALDI-TOF; type: biochemical; settings: 100 μM molecule, FAP-α 50 μM, 12 h; buffer 50 mM Tris, 1 M NaCl, 1 mg/mL BSA, pH 7.5; HPLC (M3, M5), MALDI-TOF (M1)
T1 construct: purchased R&D SYSTEM
T1 sequence (Q12884 1-760): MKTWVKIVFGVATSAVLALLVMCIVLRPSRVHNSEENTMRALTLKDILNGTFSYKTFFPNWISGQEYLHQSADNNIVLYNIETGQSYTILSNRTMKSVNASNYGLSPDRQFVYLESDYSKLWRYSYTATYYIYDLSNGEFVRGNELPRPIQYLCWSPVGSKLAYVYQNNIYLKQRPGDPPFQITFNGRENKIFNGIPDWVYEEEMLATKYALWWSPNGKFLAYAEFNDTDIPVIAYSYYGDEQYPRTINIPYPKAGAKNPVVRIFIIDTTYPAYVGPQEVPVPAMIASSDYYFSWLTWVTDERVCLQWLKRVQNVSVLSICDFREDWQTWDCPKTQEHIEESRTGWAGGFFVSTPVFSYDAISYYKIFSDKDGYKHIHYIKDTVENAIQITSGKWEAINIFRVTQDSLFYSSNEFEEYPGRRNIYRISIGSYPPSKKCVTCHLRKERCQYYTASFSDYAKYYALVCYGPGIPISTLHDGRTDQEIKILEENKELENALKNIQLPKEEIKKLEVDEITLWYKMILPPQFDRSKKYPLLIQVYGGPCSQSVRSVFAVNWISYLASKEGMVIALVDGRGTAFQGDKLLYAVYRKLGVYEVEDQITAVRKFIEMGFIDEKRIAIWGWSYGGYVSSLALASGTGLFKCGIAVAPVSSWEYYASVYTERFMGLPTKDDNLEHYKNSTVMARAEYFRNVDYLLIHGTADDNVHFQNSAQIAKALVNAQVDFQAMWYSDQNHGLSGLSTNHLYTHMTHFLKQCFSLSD
Text: To further investigate the FAP-α specific tailoring and BIVA probe assembly in situ simultaneously (Fig. 4a), the high-performance liquid chromatography (HPLC), TEM, and matrix-assisted laser desorption/ionization time-of-flight (MALDI-TOF) mass spectrometry were applied for the characterizations purpose. To specify the cutting of the response tailoring motif (Gly-Pro-Ala), pre-synthesized molecules of R-M3, M3 and M5 were set as controls. […] Comparing the residues peaks with R-M3, the primary sharp peak at 27.4 min can be identified by the R-M3 control (27.6 min). […] The retention time of M1 after co-incubation with inactivated FAP-α was similar to that of M3 (Supplementary Fig. 14). After hydrolyzed by FAP-α, the residues of M1 in situ assembled into nanofibers structures under the complex buffer (Fig. 4c and Supplementary Fig. 15). […] In order to further evaluate the specificity of M1 for different enzymes, including FAP-α, pepsin, pancreatin, lipase, and BSA, we used ThT (Thioflavin T) as a detection probe (Fig. 4e).
Fig. 4 The FAP-α specific molecule tailoring and inducing in situ assembly. a The illustration the working mechanism of BIVA probe based on FAP-α catalytic hydrolysis. b HPLC curves of M3 and M5 after incubation with FAP-α in buffer. R-M3, M3 and M5 were synthesized controls. The TEM image (c), and the MALDI-TOF (d), results of M1 after tailoring by FAP-α in buffer, the red arrows represent the assembled fibrils of M1 after incubation with FAP-α. e The enzyme specificity of M1 in buffer. Buffer: 50 mM Tris, 1 M NaCl, 1 mg/mL, BSA, pH 7.5; Concentration of M1 and M3: 100 μM; Concentration of FAP-α: 50 μM; incubation time: 12 h. […]

Question: Which “blood circulation half-life (t1/2)” value [1] does the source give for CC1(C)C(/C=C/C=C/C=C/C=C2\N(CCCCS(=O)(=O)O)c3ccc4ccccc4c3C2(C)C)=[N+](CCCCS(=O)(=O)[O-])c2ccc3ccccc3c21 [ICG, indocyanine green] here?
Answer: 2.5 ± 0.5 min

Question: And the “time to complete metabolic clearance” value (MIA PaCa-2 tumor)?
Answer: ≤ 8 h

Question: Which “Critical assembly concentration (CAC)” value ([2]; aqueous solution, analyzed based on pyrene fluorescence) does the source give for “mPEG-AGGKLVFFGCGRGD [M5, the non-labeling molecule of M2]” here?
Answer: >332.7 µM

Question: And the “pyrene I1/I3” value ([2]; conc 100 μM)?
Answer: 1.152

Question: What about the “pyrene I1/I3” value ([2]; conc 200 μM) of the same compound?
Answer: 1.176

Question: And the “pyrene I1/I3” value ([2]; conc 300 μM)?
Answer: 1.178

Question: What about the “pyrene I1/I3” value ([2]; conc 400 μM) of the same compound?
Answer: 1.119

Question: And the “pyrene I1/I3” value ([2]; conc 500 μM)?
Answer: 1.173

Question: What about the “pyrene I1/I3” value ([2]; conc 600 μM) of the same compound?
Answer: 1.077

Question: And the “pyrene I1/I3” value ([2]; conc 700 μM)?
Answer: 1.029

Question: What about the “pyrene I1/I3” value ([2]; conc 800 μM) of the same compound?
Answer: 1.021

Question: And the “pyrene I1/I3” value ([2]; conc 900 μM)?
Answer: 0.975

Question: What about the “tailoring (cleavage) by FAP-α” value (FAP-α) of the same compound?
Answer: no change of the retention peak
